Reference: PMC8573201
Numbering of substitutions follows the chain as printed.

Assays:
[1] = biological target: T1, human GIPR variant R190Q (human) (UniProt P48546)
T1 sequence: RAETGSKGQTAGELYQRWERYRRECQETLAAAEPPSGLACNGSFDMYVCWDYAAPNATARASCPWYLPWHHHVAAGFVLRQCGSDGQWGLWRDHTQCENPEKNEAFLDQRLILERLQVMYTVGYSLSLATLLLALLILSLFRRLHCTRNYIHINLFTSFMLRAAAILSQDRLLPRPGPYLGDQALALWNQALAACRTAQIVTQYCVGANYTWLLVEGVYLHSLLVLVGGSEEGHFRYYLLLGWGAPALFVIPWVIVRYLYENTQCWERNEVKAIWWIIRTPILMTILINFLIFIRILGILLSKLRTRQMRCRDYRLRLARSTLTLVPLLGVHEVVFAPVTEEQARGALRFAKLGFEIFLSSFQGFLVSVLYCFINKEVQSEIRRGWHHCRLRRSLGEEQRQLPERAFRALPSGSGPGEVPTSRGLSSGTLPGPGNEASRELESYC

[2] = biological target: T2, wild-type human GIP receptor (GIPR) (human) (UniProt P48546)
T2 sequence: T1 sequence with Q169R

[3] = biological target: T3, human GIPR variant E288G (human) (UniProt P48546)
T3 sequence: T1 sequence with Q169R, E267G

[4] = biological target: T4, human GIPR double mutant R190Q-E288G (human) (UniProt P48546)
T4 sequence: T1 sequence with E267G

[5] = biological target: T1, human GIPR variant R190Q (human); remark: listed apart in the source
[6] = biological target: T2, wild-type human GIP receptor (GIPR) (human); remark: listed apart in the source
[7] = biological target: T3, human GIPR variant E288G (human); remark: listed apart in the source
[8] = biological target: T4, human GIPR double mutant R190Q-E288G (human); remark: listed apart in the source
[9] = scale: negative logarithm of molar concentration

Sequence of Rluc8-Arrestin-3-Sp1 (P32121 whole entry): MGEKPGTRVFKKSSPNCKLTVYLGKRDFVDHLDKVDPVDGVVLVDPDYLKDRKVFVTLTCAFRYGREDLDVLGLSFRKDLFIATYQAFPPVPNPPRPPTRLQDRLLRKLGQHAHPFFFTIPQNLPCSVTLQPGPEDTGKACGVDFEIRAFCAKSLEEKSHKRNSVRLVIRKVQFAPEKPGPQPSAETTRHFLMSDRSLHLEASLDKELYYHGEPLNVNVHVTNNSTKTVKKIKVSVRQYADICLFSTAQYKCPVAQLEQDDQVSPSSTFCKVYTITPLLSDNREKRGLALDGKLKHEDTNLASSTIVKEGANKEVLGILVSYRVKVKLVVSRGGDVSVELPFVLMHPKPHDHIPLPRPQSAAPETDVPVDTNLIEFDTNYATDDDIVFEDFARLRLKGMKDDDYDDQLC

For “Rluc8-Arrestin-3-Sp1 (from UniProt P32121 1-409) (natural protein)”, the β-arrestin 2 recruitment in HEK293 cells (BRET between Rluc8-Arrestin-3-Sp1 and mem-linker-citrine-SH3, GRK2 co-expressed) on stimulation with GIP(1-42), Emax [1] was 9 % of WT, the β-arrestin 2 recruitment in HEK293 cells (BRET, GRK2 co-expressed), pEC50 of GIP(1-42) [1, 9] was 9.1 and the β-arrestin 2 recruitment in HEK293 cells (BRET between Rluc8-Arrestin-3-Sp1 and mem-linker-citrine-SH3, GRK2 co-expressed) on stimulation with GIP(1-42), Emax [2] was 98 % of WT. For the same substance, the β-arrestin 2 recruitment in HEK293 cells (BRET, GRK2 co-expressed), pEC50 of GIP(1-42) [2, 9] was 9.1, the β-arrestin 2 recruitment in HEK293 cells (BRET between Rluc8-Arrestin-3-Sp1 and mem-linker-citrine-SH3, GRK2 co-expressed) on stimulation with GIP(1-42), Emax [3] was 8.6 % of WT and the β-arrestin 2 recruitment in HEK293 cells (BRET, GRK2 co-expressed), pEC50 of GIP(1-42) [3, 9] was 9.6. The β-arrestin 2 recruitment in HEK293 cells (BRET between Rluc8-Arrestin-3-Sp1 and mem-linker-citrine-SH3, GRK2 co-expressed) on stimulation with GIP(1-42), Emax [4] was 12 % of WT, the β-arrestin 2 recruitment in HEK293 cells (BRET, GRK2 co-expressed), pEC50 of GIP(1-42) [4, 9] was 8 and the β-arrestin 2 recruitment in HEK293 cells (BRET, GRK2 co-expressed), EC50 of GIP(1-42) [5] was 0.76 nM. The β-arrestin 2 recruitment in HEK293 cells (BRET, GRK2 co-expressed), EC50 of GIP(1-42) [6] was 0.88 nM, the β-arrestin 2 recruitment in HEK293 cells (BRET, GRK2 co-expressed), EC50 of GIP(1-42) [7] was 0.23 nM and the β-arrestin 2 recruitment in HEK293 cells (BRET, GRK2 co-expressed), EC50 of GIP(1-42) [8] was 11 nM.
